US20140044674A1

Molecular target: IL-10R on freshly isolated human blood monocytes (human) (UniProt Q13651)
Experiment: cell-based or functional assay

Sequence of IL-10R on freshly isolated human blood monocytes (human) (Q13651 22-578, chain 1 of 2): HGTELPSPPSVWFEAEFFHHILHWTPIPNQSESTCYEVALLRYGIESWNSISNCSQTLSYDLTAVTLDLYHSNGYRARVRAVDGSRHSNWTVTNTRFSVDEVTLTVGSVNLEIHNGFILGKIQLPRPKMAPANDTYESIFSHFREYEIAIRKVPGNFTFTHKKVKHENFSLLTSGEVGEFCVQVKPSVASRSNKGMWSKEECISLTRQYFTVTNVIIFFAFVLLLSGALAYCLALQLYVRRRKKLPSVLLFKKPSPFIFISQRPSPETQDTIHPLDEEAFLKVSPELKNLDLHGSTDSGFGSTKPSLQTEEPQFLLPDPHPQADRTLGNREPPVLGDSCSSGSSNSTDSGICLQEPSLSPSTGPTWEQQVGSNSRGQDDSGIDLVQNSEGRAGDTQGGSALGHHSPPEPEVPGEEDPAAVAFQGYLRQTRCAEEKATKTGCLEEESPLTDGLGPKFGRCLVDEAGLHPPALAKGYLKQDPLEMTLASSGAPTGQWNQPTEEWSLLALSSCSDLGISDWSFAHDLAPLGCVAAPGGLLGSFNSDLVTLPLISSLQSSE
Sequence of IL-10R on freshly isolated human blood monocytes (human) (Q08334 20-325, chain 2 of 2, further chain): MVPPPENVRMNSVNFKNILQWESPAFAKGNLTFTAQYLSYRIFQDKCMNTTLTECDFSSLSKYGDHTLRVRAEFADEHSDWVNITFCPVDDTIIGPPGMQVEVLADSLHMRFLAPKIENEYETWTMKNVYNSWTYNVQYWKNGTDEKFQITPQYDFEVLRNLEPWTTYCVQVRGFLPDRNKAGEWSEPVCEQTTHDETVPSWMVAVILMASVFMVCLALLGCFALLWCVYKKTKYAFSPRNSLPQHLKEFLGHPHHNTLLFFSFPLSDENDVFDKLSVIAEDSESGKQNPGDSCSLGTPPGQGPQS

EC50 [nM] pSTAT3 induction, primary monocytes: 0.017 nM
EC50 [nM] pSTAT3 induction, primary monocytes, Donor 1: 0.029 nM
EC50 [nM] pSTAT3 induction, primary monocytes, Donor 2: 0.019 nM
EC50 [nM] pSTAT3 induction, primary monocytes, Donor 3: 0.021 nM
Substance: recombinant wild type human IL-10 (from UniProt P22301 19-178) (ligand)
